From a protein production outcome set (Wang et al. 2014)

Test: label from the status in PepcDB records

| Sequence | protein production |
| --- | --- |
| SSPVPFGPEGRLEDKLHKPKATQTEVKPSVRFNLRTSKDPEHEGCYLSVGHSQPLEDCSFNMTAKTFFIIHGWTMSGIFENWLHKLVSALHTREKDANVVVVDWLPLAHQLYTDAVNNTRVVGHSIARMLDWLQEKDDFSLGNVHLIGYSLGAHVAGYAGNFVKGTVGRITGLDPAGPMFEGADIHKRLSPDDADFVDVLHTYTRSFGLSIGIQMPVGHIDIYPNGGDFQPGCGLNDVLGSIAYGTITEVVKCEHERAVHLFVDSLVNQDKPSFAFQCTDSNRFKKGICLSCRKNRCNSIGYNAKKMRNKRNSKMYLKTRAGMPFRVYHYQMKIHVFSYKNMGEIEPTFYVTLYGTNADSQTLPLEIVERIEQNATNTFLVYTEEDLGDLLKIQLTWEGASQSWYNLWKEFRSYLSQPRNPGRELNIRRIRVKSGETQRKLTFCTEDPENTSISPGQELWFRKCRDGWRMKNETSPTVELP | not failed |
| SSQWHHPRSGWGRRRDFSGRSSAKKKGGNHIPERWKDYLPVGQRMPGTRFIAFKVPLQKSFEKKLAPEECFSPLDLFNKIREQNEELGLIIDLTYTQRYYKPEDLPETVPYLKIFTVGHQVPDDETIFKFKHAVNGFLKENKDNDKLIGVHCTHGLNRTGYLICIYLIDVEGVRPDDAIELFNRCRGHCLERQNYIEDLQNGPIRKNWNSSVPRSSDFEDSAHLMQPVHNKPVKQGPRYNLHQIQGHSAPRHFHTQTQSLQQSVRKFSENPHVYQRHHLPPPGPPGEDYSHRRYSWNVKPNASRAAQDRRRWYPYNYSRLSYPACWEWTQ | not failed |
| SSSTEVKDNVLTEEEKAEGYTLLFNGKDFTGWKMFNGGDVKGWQVEDGVIVGYGNGGDVIADTTIKVSTDIVTVKNYHNFQIKWDWKIGAQGNSGFLYHVQEGPKYKAPFETGPEYQLIDDDNYPWVSETGKEGLEDWQKTGCNYAMYVPETKQVNPPGEWNSSMVLYKDGYVEHWLNGEKLFSFQEGSEDWKMRRYSGKWEAFPDYGISTTGKLCFQDHGSKVYFKNVKIKDLD | not failed |
| SSTHGSRFPLCGGRRDHKGLTHIFNPPPKRFESILEGLFGPALLKDLSLFKDCEPESISDWTFDENCLFCCLRRDKVKGHLVGLDEPASGAGQEALLKQEQAKIIRFERQAEEFLNAVFYRKDSPWVSDPNIPLVAREIMQRMIQQFAAEYTSKNSSTQDPSQPNSTKNQSLPKASPVTTSPTAATTQNPVLSKLLMADQDSPLDLTVRKSQSEPSEQDGVLDLSTKKSPCAGSTSLSHSPGCSSTQGNGRPGRPSQYRPDGLRSGDGVPPRSLQDGTREGFGHSTSLKVPLARSLQISEELLSRNQLSTAASLGPSGLQNHGQHLILSREASWAKPHYEFNLSRMKFRGNGALSNISDLPFLAENSAFPKMALQAKQDGKKDVSHSSPVDLKIPQVRGMDLSWESRTGDQYSYSSLVMGSQTESALSKKLRAILPKQSRKSMLDAGPDSWGSDAEQSTSGQPYPTSDQEGDPGSKQPRKKRGRYRQYNSEILEEAISVVMSGKMSVSKAQSIYGIPHSTLEYKVKERLGTLKNPPKKKMKLMRSEGPDVSVKIELDPQGEAAQSANESKNE | not failed |
| SSVVKSIELVLPEDRIYLAGSSIKGQVILTLNSTLVDPIVKVELVGRGYVEWSEEAGASCDYSRNVICNNKADYVHKTKTFPVEDNWLSAGSHTFDFHFNLPPRLPSTFTSKFGHVFYFVQASCMGREHILAKKRMYLLVQGTSTFHKETPFQNPLFVEAEEKVSYNCCRQGTVCLQIQMERNTFTPGEKVVFTTEINNQTSKCIKTVVFALYAHIQYEGFTPSAERRSRLDSSELLRQEANTPVTRFNTTKVVSTFNLPLLLSVSSSTQDGEIMHTRYELVTTVHLPWSLTSLKAKVPIIITSASVDSAICQLSEDGVLPVNPDHQN | not failed |
| STERRRDELSEEINNLREKVMKQSEENNNLQSQVQKLTEENTTLREQVEPTPEDEDDDIELRGAAAAAAPPPPIEEECPEDLPEKFDGNPDMLAPFMAQCQIFMEKSTRDFSVDRVRVCFVTSMMTGRAARWASAKLERSHYLMHNYPAFMMEMKHVFEDPQRREVAKRKIRRLRQGMGSVIDYSNAFQMIAQDLDWNEPALIDQYHEGLSDHIQEELSHLEVAKSLSALIGQCIHIERRLARAAAARKPRSPPRALVLPHIASHHQVDPTEPVGGARMRLTQEEKERRRKLNLCLYCGTGGHYADNCPAKASKSSPAGNSPAPL | not failed |
| STMSGYLYRSKGSKKPWKHLWFVIKNKVLYTYAASEDVAALESQPLLGFTVTLVKDENSESKVFQLLHKGMVFYVFKADDAHSTQRWIDAFQEGTV | not failed |
| STQVSQATSQPINFQVQKDGSSEKSHMDDYMQHPGKVIKQNNKYYFQTVLNNASFWKEYKFYNANNQELATTVVNDNKKADTRTINVAVEPGYKSLTTKVHIVVPQINYNHRYTTHLEFEKAIPTLADAAK | not failed |
| STRFPGVAIYLVEPRMGRSRRAFLTGLARSKGFRVLDACSSEATHVVMEETSAEEAVSWQERRMAAAPPGCTPPALLDISWLTESLGAGQPVPVECRHRLEVAGPRKGPLSPAWMPAYAC | not failed |
| STRRVSVRDKLLVKEVAELEANLPCTCKVHFPDPNKLHCFQLTVTPDEGYYQGGKFQFETEVPDAYNMVPPKVKCLTKIWHPNITETGEICLSLLREHSIDGTGWAPTRTLKDVVWGLNSLFTDLLNFDDPLNIEAAEHHLRDKEDFRNKVDDYIKRYAR | not failed |
| SVDVEFQKAVEDILRKNIKQGKQYAGSDLFDRAFVVAMDPYSGEVLALAGQKLNDKGEFDDYSLGTFTTAYAMGSAVKGSTILGGIMDGAISNKTVFTDQPIALKGTKPKSSWFNRTGAGNRPLDPVGALEISSNSYMYQVAMKMGGAKYVPNGPLRAPLSTFDDMRYYYNQFGLGVKTGIDLPGEQVGYKGDDQTIGKILDFAIGQYDSYTPLQMAQYVSTIANGGSRIAPSMVKEIRNPSTNGDSVGTLATANEPKVLNKIGVSDNDIKTVQKGFYEVTHGSTGTARTVFTSSDYDVAGKTGTADAFYDGPKEGNKMASVWNTTFVGYAPVKKPEIAISVVVPWIYRPYGTDQKTNMKISKEVFDKYFELKKERAESNKDASKVEQPINNKEAAAKAQSEQTEN | failed |
| TAYIIVGLTPKDAEKLQQYGARVASTLAKYSGEVLVKGSVEQLHGKFEHKAQVILEFPSREDAYNWYHSEEYQALISTRDLGMDSQFQLIG | not failed |
| TEDTFWKDETDFNLALTSCYTPLKNALNGGYYGTRGVMLRIARADEVDFRNDISDVYTVNRFTNSNTNSLTQGMFYQFYNALYRTNSIMQKLEEKKEQFSTDFQNSVKGECLFIRGFYLFQLAKEFKDAPLRLTASQSPSTFPLAKSSQADIWAQAKEDLKTAASLLPITNKIGKPTQGAAYAALGKIYVYEENWQEAINVLEPLTQNPYTYKLVEDFNWNFDDTHENNAESIFELLIEDVGGTDLWGDGENINSTQSNTRPKEYAAAEVGGWYEANPTQQIMDIFWKEKDKDGNFDYRARCSVAWDYEGCTYYQRPFREVFAQDKWKTYWILKYQNWKTQKDEPAPPKSFINERAIRYADVLLMLAEAYMNKGALDTSIGYINQIRRRANLNDYSGPITKEGVFEDLVHQRAIEFFVEGERFYDLRRWGLLEQTLKTCDDTRYKNYQTGKSDNINKFNYFPIPAKELDTNPLCTPSEGW | not failed |
| TEERLKEIEAKYDEIAKDWPKKVKHVLHEEHELELTRVQVYTCDKCEEEGTIWSYHCDECDFDLHAKCALNEDTKE | not failed |
| TEQGLQKVLQRLVQTMQRDALVRQTTNQLRESLQVDRVVLYYFYWQWHGQVTFEALSSEEFSILGSTGADECFNDEYAALYLAGRTKAIADIESEPITTCHRDFLRTLQVRANLVVPVLVPKGLWGLLVAHHCQGTHDWKESDIELMQAGAKTLA | failed |
| TFEEDDNMERAAVTGIAFDKNQARINVRGVPDKPGVAYQILGAVADANIEVDMIIQNVGSEGTTDFSFTVPRGDYKQTLEILSERQDSIGAASIDGDDTVCKVSAVGLGMRSHVGVAAKIFRTLAEEGINIQMISTSEIKVSVLIDEKYMELATRVLHKAFNLG | not failed |
| TFGEKLLNAASTRGRLCVGIDPHESLLTSWGLPVNVDGLAEFSRACVEAFADTVALVKPQVAFYERFGSAGFAILEETIQTLRERGCLVVSDAKRGDIGSTMAGYASAWLDPASPLSSDAVTVSPYLGFHSLDPVFELAEQHGRGVFVLAATSNPEARELQDQQNADGVSISQQIVDQAAALNAPYMAQGKAGNIGVVIGATLSKPPRLSTLGGAILMPGVGAQGGTASDVDEIAGDMAHLAFPNVSRSILATGPDIAEMKNSVAKNAADFPGFP | not failed |
| TGQGWMLNLRREKFQDPKVREALNLMFNFEWSNQTLFYGLYTRVDSFWENSYLEAEGAPSEAEAALLKPLVDEGLLPASILTEPPVSPPVSGERQLDRRNLRAASKLLDEAGWTVGSDGMRRNAKGEVLRVEFLNDSQTFDRVISPFVENLRALGVDALMTRVDNAQMESRTRPPSYDFDITTGNARTNYISGAELKQYYGSETADISAFNIMGLKDKAVDRMIEVVLAAKTSEELEVATKALDRVLRLQRFWVPQWYKA | failed |
| THVVCSDSGLEVLYQSCDPLQDFGFSVEKCSKQLKSNINIRFGIILREDIKELFLDLALMSQGSSVLNFSYPICEAALPKFSFCGRRKGEQIYYAGPVNNPEFTIPQGEYQVLLELYTEKRSTVACANATIMCS | not failed |
| TIAFIVNKNLLHGSEIPKSWADLKTGKYKVSIGDVSTAAQAANGVLAASFAMKGDESNIEPGLALFTDLAKQKRLSLANPTIQTIEKGEIEVGVVWDFNGLSYRTKMAKPDDYVVLIPSDGSVISGYTTIINKYAKHPNAAKLAREYTFSDAGQ | failed |
| TIDLRMQQYAEEAMVKQMKEVLQPIFDKEKRGRSYAPFSRDITSDEQRSILLRAMKQTDRWREMKKAGISESEIRASFNKKRKMQVWNWRGTIDTVMSPLDSIKYLKGILRTGFMAMNPHNGHIKAYVGGINFRNFQYDMVSQGRRQVGSTIKPFLYSLSMLEGISPCDEMLHVSQTLFTESGKAWTPKNTGARRTGEMVSIKWGLQNSSNWVTAYLMGRTSPYTFVRLLRSYGLSGYLEPSLSICLGTPDVSVQEMVSAYTTFVNKGIRVNPLPITRIEDQYGNVVAQFSPNMVEVLPPDAAYKMLYMLKSVVDGGTGSRLRYRYGFKLDMGGKTGTTQNNSDGWFVGFTPSLVAGCWVGGEDRSVHFDSMSNGQGAASALPIFAEFLKRVYADPKLGYTTE | failed |
| TIDRGIQTQIESLVERWNSEFKRSDIRNLAILVIDIRTNQAIAYCGNVHFDKEQSGNQVDVIRSPRSTGSILKPFLYYAMLQEGEILPNTLLPDIPVNINGFTPQNFNLQFEGAVPASEAIARSLNIPSVTMLQRYGVPKFHSFLKQIGLTTLNRPSSHYGLSLILGGAEATLWDITSAYANMGRSLNRLPQFPCTLLLSDSTSVHRPSFQSGAVWQTFDAIKEVNRPEEIDWRTIPSMQTIAWKTGTSYGFRDAWAVGVTPKYAVGVWVGNATGEGKPGLVGARTAGPVLFDVFNLL | failed |
| TKDFTWQTDWTFSLNNEKIKELAGGATYDSTGPWMVGEPLNSFYDFQYDRIWQNTQEDNHLMDVYRSLGLTFLPGQYKIVDQ | failed |
| TKEHRAAARKIAGESFVLLKNEGLSPTLAPVLPLSPTGTIAVIGPLANTRSNMPGTWSVAAVLDKSPSLVEGLTEWVGNQGKILYAKGSNLIGDAAYEERATMFGRSLNRDNRTDQQLLDEALKIASQADVIVAALGESSEMSGESSSRTNLNLPDVQHTLLEALLKTGKPVVLVLFTGRPLVLNWEQEHVPAILNVWFGGSEAGPAIGDVLFGAVNPGGKLTMTFPKSVGQIPLYYAHKNTGRPLKEGKWFEKFRSNYLDVDNDALYPFGYGLSYTTF | failed |
| TKKDVHDLFLNHVNSNAVKTRKMMGEYIIYYDSVVIGGLYDNRLLVKATKSVRHQLQDNTLVSPYPGAKEMILIPDITEAINLTNLFELIKNDLKN | failed |
